Test results reported in publication PMC6260146.

Target: CR3 (CD11b/CD18) on peripheral blood monocytes (human (endogenous in peripheral blood monocytes)) (UniProt P11215)
Test: flow cytometry on cells; peripheral blood monocytes preincubated with unlabelled FH5-7 (14 μg/ml, 15 min on ice by the methods; 12 μg/ml, 30 min by the legend) or PBS, then a panel of FITC-, PE- or APC-labeled receptor specific antibodies, 45 min at 4°C; read-out: mean fluorescence of FH5-7 treated cells divided by PBS treated cells

- anti-CD11b antibody binding in the presence of FH5-7 relative to without FH5-7 (1.0) (ratio of mean fluorescence): < 0.8
Substance: recombinant fragment FH5-7 of Factor H (domain or fragment)
